For orientation: Kd means the equilibrium constant for the complex coming apart.

One series concerns the target MLL1 PHD3 (Homo sapiens) (UniProt Q03164). Particulars: cited from earlier work.
For series [1], the target named is T1, FL-Cyp33 (human, UniProt Q9UNP9 1-301). As to the kind of experiment: EMSA; EMSA: SELEX buffer (composition in S2 Table, not in material; physiological salt is 135 mM KCl, 15 mM NaCl) + 10% glycerol, 5 nM RNA, 0.5X TBE 8% PAGE at room temperature; NMR: SELEX buffer + 10% D2O, 25 C; pH not given. Particulars: protein: recombinant, 6xHis-thrombin construct for NMR, hairpin (predicted).

The target in series [2] is T1, FL-Cyp33. Put plainly: EMSA; no quantifiable binding by gel shift; EMSA: SELEX buffer (composition in S2 Table, not in material; physiological salt is 135 mM KCl, 15 mM NaCl) + 10% glycerol, 5 nM RNA, 0.5X TBE 8% PAGE at room temperature; NMR: SELEX buffer + 10% D2O, 25 C; pH not given. As to conditions: protein: recombinant; 6xHis-thrombin construct for NMR; single strand. (A gel shift assay detects complexes by their altered migration in electrophoresis.)

Another series has as its target Cyp33-Cyp (human, UniProt Q9UNP9 131-301). Put plainly: NMR 1H-15N HSQC; no significant perturbation; EMSA: SELEX buffer (composition in S2 Table, not in material; physiological salt is 135 mM KCl, 15 mM NaCl) + 10% glycerol, 5 nM RNA, 0.5X TBE 8% PAGE at room temperature; NMR: SELEX buffer + 10% D2O, 25 C; pH not given. Particulars: protein: recombinant; tags: C-terminal 6xHis, pET15b; label: 5'-32P (EMSA); hairpin (predicted).

T1 sequence (Q9UNP9 whole entry): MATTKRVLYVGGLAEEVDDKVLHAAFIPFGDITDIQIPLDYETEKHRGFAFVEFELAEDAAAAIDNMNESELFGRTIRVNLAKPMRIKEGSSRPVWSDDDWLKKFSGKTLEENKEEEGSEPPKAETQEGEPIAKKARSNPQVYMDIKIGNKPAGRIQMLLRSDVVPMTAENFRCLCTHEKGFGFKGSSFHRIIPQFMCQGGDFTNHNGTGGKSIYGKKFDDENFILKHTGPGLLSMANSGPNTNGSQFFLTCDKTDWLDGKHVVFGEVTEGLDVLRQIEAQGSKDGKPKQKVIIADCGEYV
Chain of MLL1 PHD3 (Homo sapiens) (Q03164 1566-1627): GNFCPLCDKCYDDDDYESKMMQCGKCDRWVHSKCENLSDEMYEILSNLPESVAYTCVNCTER
Chain of Cyp33-Cyp (Q9UNP9 131-301): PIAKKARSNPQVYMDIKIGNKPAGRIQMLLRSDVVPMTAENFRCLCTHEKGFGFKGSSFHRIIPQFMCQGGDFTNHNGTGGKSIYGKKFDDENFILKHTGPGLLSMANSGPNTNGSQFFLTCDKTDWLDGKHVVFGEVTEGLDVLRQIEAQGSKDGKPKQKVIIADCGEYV

Take Cyp33 RRM (from UniProt Q9UNP9): the Kd in the series with MLL1 PHD3 (Homo sapiens) was 1.9 µM.

B1: SO-8 (structured_RNA)
RNA: AGAACAAUAAUUACAAAGACUGAGCGUUUUAAAGUCUCCUCAUGUGCCCCC
For B1, the Kd with FL-Cyp33 [1] (label: 5'-32P) is 24 ± 13 µM.
Regarding UGGUAGACCAGUGAUAAUUAACCUGAUG (structured_RNA) [SO-3], the Kd with FL-Cyp33 [1] (label: 5'-32P) was 32 ± 2.5 µM.
As to AAUAAUAA (ssRNA) [AAUAAUAA k-mer], the binding result in the series with FL-Cyp33 [2] is listed as “no binding”.
Consider AGUGAUAAUUAA (ssRNA) [SO-1 single-stranded region 12-mer], for which the binding result with FL-Cyp33 [2] is on record as “no binding”.
UGGCCGGCCCAUCCCGACUGCCGGGUGAUAGACUCUUUAGCGAUUUAUGG (structured_RNA) [SO-4]: the Kd with FL-Cyp33 [1] (label: 5'-32P) is 55 ± 10 µM.
The same measure, in the same setting: to AGGUGCCUCAAAUCCGCAUAAGAAUAACAACAUGGAGUGAAGCGCUCCCC (structured_RNA) [SO-6] belongs 36 ± 10 µM; to AAAGUGAGAUAAGGUAACAACAAGAAUAAUAAUAUACCUAUCAUCUUGCC (structured_RNA) [SO-9], around 90 µM.
In the case of UGGUAGACCAGUGAUAAUUAACCUGAUGCGUGGAGGAUAUCGAGUUGUCC (structured_RNA) [SO-1], the binding result with Cyp33-Cyp is “no binding”. In the series with FL-Cyp33 [1] (label: 5'-32P (EMSA)), the dissociation constant (Kd) is 6.6 ± 0.6 µM.
For the molecule CAGGUGUGUGACUACGAAAGAACAAUAAUAACACAAAAGAGUCCCGUGCC (structured_RNA) [SO-2], in the series with FL-Cyp33 [1] (label: 5'-32P), the Kd was 21 ± 3.1 µM.

The values above are taken from article PMC7894885, “Cyp33 binds AU-rich RNA motifs via an extended interface that competitively disrupts the gene repressive Cyp33-MLL1 interaction in vitro”.
